The results in this text go back to PMC3842841, “VacA, the vacuolating cytotoxin of Helicobacter pylori, binds to multimerin 1 on human platelets” (Thrombosis Journal, 2013).

What is called Kd is a measure of binding affinity in units of concentration.

The target in this experiment is T1, VacA, the vacuolating cytotoxin of Helicobacter pylori (Helicobacter pylori ATCC49503, UniProt Q48245 34-854).
T1 sequence: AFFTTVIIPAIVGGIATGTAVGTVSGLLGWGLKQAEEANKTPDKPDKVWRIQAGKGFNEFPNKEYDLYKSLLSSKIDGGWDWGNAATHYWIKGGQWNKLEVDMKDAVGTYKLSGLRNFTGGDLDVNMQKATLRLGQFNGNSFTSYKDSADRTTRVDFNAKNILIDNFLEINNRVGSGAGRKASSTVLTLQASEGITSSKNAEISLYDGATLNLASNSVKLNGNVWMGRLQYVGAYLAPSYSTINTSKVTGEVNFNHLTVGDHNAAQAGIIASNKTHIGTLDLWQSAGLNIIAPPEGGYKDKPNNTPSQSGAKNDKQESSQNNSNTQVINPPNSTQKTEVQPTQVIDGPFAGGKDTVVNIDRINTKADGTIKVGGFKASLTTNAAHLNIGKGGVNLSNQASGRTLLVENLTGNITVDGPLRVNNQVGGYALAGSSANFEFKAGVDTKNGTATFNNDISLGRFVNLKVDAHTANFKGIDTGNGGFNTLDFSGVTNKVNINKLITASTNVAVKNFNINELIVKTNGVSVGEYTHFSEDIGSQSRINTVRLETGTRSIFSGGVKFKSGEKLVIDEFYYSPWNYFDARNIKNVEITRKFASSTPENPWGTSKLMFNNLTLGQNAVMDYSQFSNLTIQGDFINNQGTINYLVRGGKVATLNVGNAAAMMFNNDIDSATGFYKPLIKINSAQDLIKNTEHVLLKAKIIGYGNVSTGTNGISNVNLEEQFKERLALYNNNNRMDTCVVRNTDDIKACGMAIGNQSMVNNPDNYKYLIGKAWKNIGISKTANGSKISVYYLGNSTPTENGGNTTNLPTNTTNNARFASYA
Put plainly: SPR; BIAcore X, 25°C; GST-MMRN1 amine-coupled to a CM5 chip; VacA in PBS with 1 mM Ca++ perfused at 20 μL/min; control surface subtracted. The following applies: both partners purified.

B1: Glutathione S-transferase (GST)-fusion protein of multimerin 1 (291a.a. ~ 391a.a.) (domain or fragment)
chain: IHTNQAESHTAVGRGVAEQQQQQGCGDPEVMQKMTDQVNYQAMKLTLLQKKIDNISLTVNDVRNTYSSLEGKVSEDKSREFQSLLKGLKSKSINVLIRDIV
notes: multimerin 1 (MMRN1), residues 291-391; also called GST-MMRN1; GST-fusion protein of partial MMRN1 (291aa-391aa); source: bought: Abnova Corporation
The molecule B1 gave a Kd of 33 nM.
